{"source": "the supplement of paper PMC9112550", "about": "“Optimization of the antimicrobial peptide Bac7 by deep mutational scanning” (BMC Biology, 2022);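 note: peptides expressed intracellularly from a pBAD plasmid library in pooled LB shake-flask culture, induced with 0.3% L-arabinose, DNA abundance read by NGS, three biological replicates, DESeq2 with apeglm shrinkage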"}
{"test_system": "Escherichia coli TOP10", "experiment": "shrunken log2 fold change of peptide-encoding DNA abundance (4.5 h post-induction vs induction); higher = less antimicrobial activity (less host growth inhibition)", "conditions": "time post-induction: 4.5 h; library: site-saturation at positions 5, 18, 19, 20"}
{"sequence": "RRIRSRPPRLPRPRPRPRAGPRP", "shrunken log2 fold change": 1.46}
{"sequence": "RRIRKRPPRLPRPRPRPWINPRP", "shrunken log2 fold change": -0.0449}
{"sequence": "RRIRIRPPRLPRPRPRPEMHPRP", "shrunken log2 fold change": -0.328}
{"sequence": "RRIRWRPPRLPRPRPRPHDWPRP", "shrunken log2 fold change": 0.15}
{"sequence": "RRIRYRPPRLPRPRPRPLRQPRP", "shrunken log2 fold change": 0.0273}
{"sequence": "RRIRLRPPRLPRPRPRPCSMPRP", "shrunken log2 fold change": -0.00844}
{"sequence": "RRIRMRPPRLPRPRPRPTCNPRP", "shrunken log2 fold change": -0.0778}
{"sequence": "RRIRFRPPRLPRPRPRPKPHPRP", "shrunken log2 fold change": 1.81}
{"sequence": "RRIRMRPPRLPRPRPRPIPTPRP", "shrunken log2 fold change": 0.0467}
{"sequence": "RRIRWRPPRLPRPRPRPGQNPRP", "shrunken log2 fold change": 0.134}
{"sequence": "RRIRFRPPRLPRPRPRPKAPPRP", "shrunken log2 fold change": 0.453}
{"sequence": "RRIRSRPPRLPRPRPRPTGFPRP", "shrunken log2 fold change": -0.0473}
{"sequence": "RRIRFRPPRLPRPRPRPPVWPRP", "shrunken log2 fold change": 0.622}
{"sequence": "RRIRARPPRLPRPRPRPEFNPRP", "shrunken log2 fold change": 1.05}
{"sequence": "RRIRSRPPRLPRPRPRPQFKPRP", "shrunken log2 fold change": -0.239}
{"sequence": "RRIRQRPPRLPRPRPRPYTSPRP", "shrunken log2 fold change": -0.0321}
{"sequence": "RRIRERPPRLPRPRPRPTPWPRP", "shrunken log2 fold change": 0.108}
{"sequence": "RRIRVRPPRLPRPRPRPQVPPRP", "shrunken log2 fold change": -0.205}
{"sequence": "RRIRNRPPRLPRPRPRPAFSPRP", "shrunken log2 fold change": -0.183}
{"sequence": "RRIRRRPPRLPRPRPRPIPAPRP", "shrunken log2 fold change": 0.804}
{"sequence": "RRIRIRPPRLPRPRPRPACPPRP", "shrunken log2 fold change": -0.146}
{"sequence": "RRIRGRPPRLPRPRPRPHFHPRP", "shrunken log2 fold change": 0.603}
{"sequence": "RRIRQRPPRLPRPRPRPPEVPRP", "shrunken log2 fold change": 0.0121}
{"sequence": "RRIRERPPRLPRPRPRPIYYPRP", "shrunken log2 fold change": -0.726}
{"sequence": "RRIRMRPPRLPRPRPRPRKFPRP", "shrunken log2 fold change": 0.247}
{"sequence": "RRIRARPPRLPRPRPRPCAKPRP", "shrunken log2 fold change": 0.984}
{"sequence": "RRIRLRPPRLPRPRPRPWTWPRP", "shrunken log2 fold change": 0.0307}
{"sequence": "RRIRMRPPRLPRPRPRPPKRPRP", "shrunken log2 fold change": 1.05}
{"sequence": "RRIRYRPPRLPRPRPRPECCPRP", "shrunken log2 fold change": -0.0698}
{"sequence": "RRIRERPPRLPRPRPRPRNCPRP", "shrunken log2 fold change": -0.102}
{"sequence": "RRIRKRPPRLPRPRPRPRDRPRP", "shrunken log2 fold change": 1.26}
{"sequence": "RRIRVRPPRLPRPRPRPRQEPRP", "shrunken log2 fold change": -0.0401}
{"sequence": "RRIRWRPPRLPRPRPRPPRKPRP", "shrunken log2 fold change": 0.731}
{"sequence": "RRIRRRPPRLPRPRPRPCYEPRP", "shrunken log2 fold change": 0.107}
{"sequence": "RRIRIRPPRLPRPRPRPHIMPRP", "shrunken log2 fold change": -1.41}
{"sequence": "RRIRIRPPRLPRPRPRPKNRPRP", "shrunken log2 fold change": -0.26}
{"sequence": "RRIRWRPPRLPRPRPRPYLCPRP", "shrunken log2 fold change": -0.447}
{"sequence": "RRIRRRPPRLPRPRPRPHLQPRP", "shrunken log2 fold change": -0.0319}
{"sequence": "RRIRQRPPRLPRPRPRPNFEPRP", "shrunken log2 fold change": -0.00188}
{"sequence": "RRIRYRPPRLPRPRPRPGINPRP", "shrunken log2 fold change": -0.227}
{"sequence": "RRIRARPPRLPRPRPRPYRLPRP", "shrunken log2 fold change": -0.275}
{"sequence": "RRIRQRPPRLPRPRPRPDQIPRP", "shrunken log2 fold change": 0.00408}
{"sequence": "RRIRARPPRLPRPRPRPYTTPRP", "shrunken log2 fold change": -0.168}
{"sequence": "RRIRERPPRLPRPRPRPARRPRP", "shrunken log2 fold change": 0.539}
{"sequence": "RRIRTRPPRLPRPRPRPNAPPRP", "shrunken log2 fold change": -0.0472}
{"sequence": "RRIRNRPPRLPRPRPRPIEDPRP", "shrunken log2 fold change": -0.0858}
{"sequence": "RRIRYRPPRLPRPRPRPWFCPRP", "shrunken log2 fold change": -0.0679}
{"sequence": "RRIRRRPPRLPRPRPRPFEKPRP", "shrunken log2 fold change": -0.0125}
{"sequence": "RRIRGRPPRLPRPRPRPNWNPRP", "shrunken log2 fold change": -0.00809}
{"sequence": "RRIRFRPPRLPRPRPRPLRTPRP", "shrunken log2 fold change": 0.703}
{"sequence": "RRIRHRPPRLPRPRPRPGTNPRP", "shrunken log2 fold change": -0.212}
{"sequence": "RRIRWRPPRLPRPRPRPKEHPRP", "shrunken log2 fold change": 0.126}
{"sequence": "RRIRIRPPRLPRPRPRPTMGPRP", "shrunken log2 fold change": 0.0793}
{"sequence": "RRIRNRPPRLPRPRPRPSGEPRP", "shrunken log2 fold change": 0.155}
{"sequence": "RRIRYRPPRLPRPRPRPRSAPRP", "shrunken log2 fold change": -0.0647}
{"sequence": "RRIRWRPPRLPRPRPRPDPDPRP", "shrunken log2 fold change": 0.545}
{"sequence": "RRIRGRPPRLPRPRPRPRPYPRP", "shrunken log2 fold change": 0.246}
{"sequence": "RRIRQRPPRLPRPRPRPFYQPRP", "shrunken log2 fold change": -0.104}
{"sequence": "RRIRVRPPRLPRPRPRPLCGPRP", "shrunken log2 fold change": 0.0478}
{"sequence": "RRIRLRPPRLPRPRPRPSVTPRP", "shrunken log2 fold change": -0.267}
{"sequence": "RRIRHRPPRLPRPRPRPRPGPRP", "shrunken log2 fold change": 0.324}
{"sequence": "RRIRMRPPRLPRPRPRPADNPRP", "shrunken log2 fold change": 0.0259}
{"sequence": "RRIRMRPPRLPRPRPRPMWCPRP", "shrunken log2 fold change": 0.283}
{"sequence": "RRIRPRPPRLPRPRPRPCCIPRP", "shrunken log2 fold change": -0.269}
{"sequence": "RRIRQRPPRLPRPRPRPCKYPRP", "shrunken log2 fold change": -0.0164}
{"sequence": "RRIRTRPPRLPRPRPRPYWVPRP", "shrunken log2 fold change": -0.0888}
{"sequence": "RRIRQRPPRLPRPRPRPVQHPRP", "shrunken log2 fold change": -0.0755}
{"sequence": "RRIRRRPPRLPRPRPRPCCFPRP", "shrunken log2 fold change": 0.151}
{"sequence": "RRIRCRPPRLPRPRPRPQNEPRP", "shrunken log2 fold change": -0.389}
{"sequence": "RRIRARPPRLPRPRPRPNQQPRP", "shrunken log2 fold change": 0.284}
{"sequence": "RRIRKRPPRLPRPRPRPHGYPRP", "shrunken log2 fold change": 0.0773}
{"sequence": "RRIRVRPPRLPRPRPRPMKYPRP", "shrunken log2 fold change": -0.0836}
{"sequence": "RRIRTRPPRLPRPRPRPSTVPRP", "shrunken log2 fold change": 0.0213}
{"sequence": "RRIRDRPPRLPRPRPRPKSPPRP", "shrunken log2 fold change": 0.0198}
{"sequence": "RRIRFRPPRLPRPRPRPIMFPRP", "shrunken log2 fold change": -0.0164}
{"sequence": "RRIRTRPPRLPRPRPRPDVYPRP", "shrunken log2 fold change": 0.00573}
{"sequence": "RRIRMRPPRLPRPRPRPNPYPRP", "shrunken log2 fold change": -0.0714}
{"sequence": "RRIRHRPPRLPRPRPRPPNYPRP", "shrunken log2 fold change": -0.0558}
{"sequence": "RRIRRRPPRLPRPRPRPTMEPRP", "shrunken log2 fold change": -0.0829}
{"sequence": "RRIRIRPPRLPRPRPRPVANPRP", "shrunken log2 fold change": -0.109}
{"sequence": "RRIRHRPPRLPRPRPRPVYIPRP", "shrunken log2 fold change": -0.0204}
{"sequence": "RRIRIRPPRLPRPRPRPLDGPRP", "shrunken log2 fold change": 0.0631}
{"sequence": "RRIRWRPPRLPRPRPRPHATPRP", "shrunken log2 fold change": 0.816}
{"sequence": "RRIRHRPPRLPRPRPRPTCVPRP", "shrunken log2 fold change": 0.134}
{"sequence": "RRIRCRPPRLPRPRPRPDQDPRP", "shrunken log2 fold change": 0.0433}
{"sequence": "RRIRRRPPRLPRPRPRPFFVPRP", "shrunken log2 fold change": 0.283}
{"sequence": "RRIRRRPPRLPRPRPRPFPGPRP", "shrunken log2 fold change": -0.143}
{"sequence": "RRIRVRPPRLPRPRPRPPVGPRP", "shrunken log2 fold change": 0.375}
{"sequence": "RRIRGRPPRLPRPRPRPLQSPRP", "shrunken log2 fold change": 0.746}
{"sequence": "RRIRGRPPRLPRPRPRPFHPPRP", "shrunken log2 fold change": -0.124}
{"sequence": "RRIRNRPPRLPRPRPRPCRLPRP", "shrunken log2 fold change": -0.0199}
{"sequence": "RRIRDRPPRLPRPRPRPEFRPRP", "shrunken log2 fold change": 0.283}
{"sequence": "RRIRTRPPRLPRPRPRPPMWPRP", "shrunken log2 fold change": 0.0903}
{"sequence": "RRIRQRPPRLPRPRPRPMRVPRP", "shrunken log2 fold change": 0.189}
{"sequence": "RRIRERPPRLPRPRPRPNACPRP", "shrunken log2 fold change": -0.00102}
{"sequence": "RRIRVRPPRLPRPRPRPGRLPRP", "shrunken log2 fold change": -0.0194}
{"sequence": "RRIRARPPRLPRPRPRPQRCPRP", "shrunken log2 fold change": 0.256}
{"sequence": "RRIRLRPPRLPRPRPRPINHPRP", "shrunken log2 fold change": -0.654}
{"sequence": "RRIRLRPPRLPRPRPRPGRFPRP", "shrunken log2 fold change": 0.226}
{"sequence": "RRIRNRPPRLPRPRPRPRWCPRP", "shrunken log2 fold change": 0.169}
{"sequence": "RRIRFRPPRLPRPRPRPGLFPRP", "shrunken log2 fold change": -0.143}
{"sequence": "RRIRWRPPRLPRPRPRPMKCPRP", "shrunken log2 fold change": -0.0018}
{"sequence": "RRIRDRPPRLPRPRPRPWMSPRP", "shrunken log2 fold change": -0.376}
{"sequence": "RRIRTRPPRLPRPRPRPAWNPRP", "shrunken log2 fold change": -0.0659}
{"sequence": "RRIRQRPPRLPRPRPRPHKTPRP", "shrunken log2 fold change": -0.146}
{"sequence": "RRIRARPPRLPRPRPRPNFMPRP", "shrunken log2 fold change": 0.186}
{"sequence": "RRIRSRPPRLPRPRPRPSHVPRP", "shrunken log2 fold change": -0.3}
{"sequence": "RRIRRRPPRLPRPRPRPFIHPRP", "shrunken log2 fold change": -0.18}
{"sequence": "RRIRQRPPRLPRPRPRPWKPPRP", "shrunken log2 fold change": -0.00884}
